Test results: the supplement of paper PMC9732359
± gives the uncertainty stated by the source.

Assay: protein stability index of a GFP-peptide fusion (yeast GPS) (PSI 1-4); higher = more stable; sorted into four equal gates, so the index is relative within each strain
Outline: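 Tiled yeast protein peptides of 17 residues were each joined downstream of GFP, on plasmids that also express Cherry. The pooled library was maintained in yeast, and mid-log cultures in leucine-free medium were sorted into four equal gates on the GFP/Cherry ratio. Plasmids from every gate were amplified by PCR and sequenced on Illumina, with barcodes linking reads to strains. The protein stability index of a peptide is its gate-number-weighted read frequency summed over the gates.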

Sequence | protein stability index (doa10∆) | protein stability index (pdr5∆) | protein stability index (san1∆) | protein stability index (ubr1∆)
LVAKFLYPIFLLDDKKL [YJR042W/NUP85] | 1.49 ± 0.034 | 1.29 ± 0.033 | 1.16 ± 0.073 | 1.26 ± 0.027
NELTDAIALAVRLGEED [RPN1] | 2.98 ± 0.096 | 3.27 ± 0.096 | – | 2.7 ± 0.095
KDNAKISNNLALVFAAL [SRP68] | 2.24 ± 0.051 | 1.86 ± 0.038 | 1.97 ± 0.066 | 2.17 ± 0.04
SERDSKDRYINGDKKVD [YMR129W/POM152] | 3.08 ± 0.14 | 3.11 ± 0.092 | 3.15 ± 0.091 | 3.1 ± 0.1
RTKNLVSKMEKAEKTLK [SMC4] | 2.91 ± 0.22 | 3.1 ± 0.056 | 3.21 ± 0.065 | 3.09 ± 0.058
KMELVYVSDSDDSSSDN [SIR4] | 2.7 ± 0.059 | 2.68 ± 0.058 | 2.47 ± 0.078 | 2.59 ± 0.067
VVIAADTRSTQGPIVAD [PUP1] | 2.65 ± 0.1 | 3.29 ± 0.24 | 2.68 ± 0.19 | 3 ± 0.072
SKVTVPPSKHSTLTLSD [ESC2] | 3.29 ± 0.12 | 3.09 ± 0.13 | 2.9 ± 0.071 | 3.1 ± 0.098
LRNWEELNIIPRDLLRV [PRP28] | 1.09 ± 0.068 | 1.35 ± 0.061 | 1.39 ± 0.21 | 1.07 ± 0.048
PFHDPEARLFNIWGTVR [ECM29] | 1.33 ± 0.26 | 1.43 ± 0.22 | – | –
TISVPQIRDVMERFSVL [RRP6] | 2.58 ± 0.094 | 2.7 ± 0.097 | 2.5 ± 0.12 | 2.68 ± 0.13
SFSLTTFSPSGKLGQID [PRE8] | 3 ± 0.14 | 2.67 ± 0.1 | 3.01 ± 0.074 | 3.08 ± 0.073
GGEKTVAALALLFAINS [SMC1] | 1.2 ± 0.078 | 1.27 ± 0.092 | 1.12 ± 0.23 | 1.9 ± 0.14
MPKKRASNGRNKKGRGH [RPS26A] | 3.3 ± 0.17 | 3.43 ± 0.19 | 2.82 ± 0.24 | 3.5 ± 0.083
GNKKYRALRIETGNFSW [RPS8A] | 2.87 ± 0.038 | 3.15 ± 0.044 | 3.14 ± 0.036 | 2.85 ± 0.03
TTQRRYEKAQKDLENAQ [SMC1] | 3.05 ± 0.098 | 3.31 ± 0.069 | 3.2 ± 0.052 | 3.14 ± 0.1
ALPRKLRRRTASHNVRR [POP1] | 2.91 ± 0.058 | 3.06 ± 0.06 | 2.79 ± 0.056 | 2.74 ± 0.039
EKDCSLRAIEKNDDNSC [YIL149C/MLP2] | 2.32 ± 0.1 | 2.67 ± 0.077 | 3.06 ± 0.082 | 1.86 ± 0.11
SDPESERPAIEFETPTF [RPN14] | 3.13 ± 0.054 | 3.11 ± 0.055 | 3.02 ± 0.047 | 3.15 ± 0.053
EPNSAKKIRFLQLIIFL [RGR1] | 1.66 ± 0.11 | 2.42 ± 0.1 | 2.89 ± 0.3 | –
RNEQVTIELKNGTTVWG [SMD1] | 1.23 ± 0.099 | 1.78 ± 0.11 | 1.49 ± 0.24 | 1.16 ± 0.094
YNRHKLQELIVNGPNVH [RPO31] | 1.19 ± 0.11 | 1.48 ± 0.1 | 1.2 ± 0.17 | 1.22 ± 0.095
SRRTVNKEMETQRIMTN [YLR018C/POM34] | 3.51 ± 0.12 | 3.15 ± 0.29 | 3.22 ± 0.26 | 3.1 ± 0.2
RAQLENEIEGKNEETPQ [RPC25] | – | 3.23 ± 0.14 | 2.47 ± 0.2 | 3.38 ± 0.078
HNQSPRNTYQSAMGKQA [RPB2] | 2.48 ± 0.063 | 2.77 ± 0.062 | 2.37 ± 0.06 | 2.25 ± 0.039
IWFPEDFISPELIIDKV [MED1] | 2.68 ± 0.068 | 2.66 ± 0.069 | 3.01 ± 0.075 | 2.94 ± 0.044
SLQDNSAAINNEDARAI [RPN4] | 3.12 ± 0.078 | 3.19 ± 0.057 | 2.94 ± 0.055 | 3.18 ± 0.05

Sequence | protein stability index (doa10∆) | protein stability index (pdr5∆) | protein stability index (san1∆) | protein stability index (ubr1∆)
RQEVTKFAKANIGYVMG [RPN4] | 1.2 ± 0.15 | 1.31 ± 0.11 | 1.21 ± 0.18 | 1.14 ± 0.065
YCDPNTQEIRPVNTGVL [RRP40] | 2.62 ± 0.055 | 2.89 ± 0.05 | 2.62 ± 0.052 | 2.76 ± 0.069
DEYLGSHTDQPANVLLV [NNF1] | 3.57 ± 0.25 | – | – | 2.92 ± 0.13
HPKLIKNKSGKIFVETK [FAS1] | 2.3 ± 0.067 | 2.76 ± 0.067 | 2.47 ± 0.13 | 2.67 ± 0.1
TTFRNEYGKHDFKNEES [MED8] | 3.05 ± 0.1 | 3.01 ± 0.084 | 3.14 ± 0.051 | 3.28 ± 0.096
ILLSHHRASPADVSIKS [POP5] | 2.79 ± 0.24 | 3.4 ± 0.18 | 3.24 ± 0.062 | –
SNHNNLNLNNSELQPQN [SNF2] | 3.02 ± 0.044 | 2.7 ± 0.062 | 2.97 ± 0.051 | 2.81 ± 0.056
VVDFTSLPEELKKRYDL [YMR129W/POM152] | 2.14 ± 0.21 | 2.33 ± 0.15 | 2.96 ± 0.088 | 2.62 ± 0.12
PRMIELMEFLCVVSTDS [ECM29] | 2.04 ± 0.064 | 1.66 ± 0.066 | 1.64 ± 0.1 | 1.4 ± 0.054
QIPQQLYQSLTPQQLQM [SNF5] | 2.73 ± 0.041 | 2.7 ± 0.038 | 2.57 ± 0.045 | 2.77 ± 0.034
PSKKLKTEDGFVIPALP [RPC82] | 3.08 ± 0.13 | 3.19 ± 0.089 | 2.93 ± 0.083 | 3.08 ± 0.065
FRVNNASINTSATVKTS [ECM29] | – | – | 1.95 ± 0.17 | –
SPLDIYSDEASAQKKRF [RPS2] | 2.74 ± 0.092 | 2.86 ± 0.082 | 3.03 ± 0.07 | 3.03 ± 0.061
MIDLGFEDQVTNILTKV [PRP28] | – | 3.67 ± 0.25 | 2.88 ± 0.22 | 3.16 ± 0.19
DLINILEKKGFSEVYEY [LIN1] | 3.44 ± 0.17 | 3.21 ± 0.29 | 3.3 ± 0.099 | 3.17 ± 0.12
KGNFRTKPFENVEKYPT [SNU114] | – | 3 ± 0.24 | 3.16 ± 0.25 | –
PQRLTVLRLATNKGPLA [MCD1] | 2.78 ± 0.099 | 2.39 ± 0.073 | 2.8 ± 0.074 | 2.42 ± 0.074
FNIISMTLKEMYQMITM [SMC4] | 1.92 ± 0.074 | 1.97 ± 0.054 | 2.22 ± 0.075 | 2.15 ± 0.042
AVKNKYNVGKQLSNEII [PRP28] | 2.08 ± 0.066 | 2.52 ± 0.074 | 2.17 ± 0.088 | 2.3 ± 0.069
YLKVSEEEIKKFDSRIR [PRP8] | 2.9 ± 0.072 | 3.08 ± 0.083 | 2.78 ± 0.066 | 3.15 ± 0.061
TFVVEQLIKQSIKNNVA [SNU114] | – | – | – | 2.38 ± 0.27
SDNISRKYEISFGKIYV [RPB2] | 2.79 ± 0.059 | 3.32 ± 0.073 | 2.78 ± 0.068 | 2.72 ± 0.072
TIKILPENTAMFNPLHE [YMR129W/POM152] | 2.42 ± 0.064 | 2.36 ± 0.053 | 2.36 ± 0.058 | 2.5 ± 0.05
EQTTGGNNKDLKNTMQY [RPB4] | 3.24 ± 0.11 | 3.09 ± 0.082 | 2.65 ± 0.17 | 3.18 ± 0.19
SVLQLIVSEDHIILDTI [MED1] | 2.2 ± 0.17 | 2.7 ± 0.19 | – | 2.08 ± 0.26
IVLGVKDLQENLLVLRG [RPO21] | 1.43 ± 0.078 | 1.35 ± 0.057 | 2.87 ± 0.059 | 1.5 ± 0.071
